The text below walks through data of publication PMC3430601, “Characterization of β-N-acetylhexosaminidase (LeHex20A), a member of glycoside hydrolase family 20, from Lentinula edodes (shiitake mushroom)” (AMB Express, 2012).

Usually Km stands for the concentration of substrate that gives half-maximal velocity. In general, kcat refers to the maximal rate divided by the concentration of active sites. The kcat/Km is the second-order rate constant that governs catalysis at low substrate concentration.

Substrate in data set [1]: CC(=O)N[C@H]1[C@H](Oc2ccc([N+](=O)[O-])cc2)O[C@H](CO)[C@H](O)[C@@H]1O
Briefly: purified protein. Type of data set: biochemical, Lentinula edodes. The following applies: 20 mM sodium acetate pH 4.2, 37 °C, 15 min.

Substrate in data set [2]: CC(=O)N[C@H]1[C@H](Oc2ccc([N+](=O)[O-])cc2)O[C@H](CO)[C@@H](O)[C@@H]1O
As to the kind of experiment: purified protein. Format: biochemical, Lentinula edodes. As to conditions: 20 mM sodium acetate pH 4.2, 37 °C, 15 min.

B1: LeHex20A (Lentinula edodes) (protein)
chain: LWPLPTDFSTGTAALTLASDFDIDISAIPNPPQDLLDAISRTKGYLQTDQLEALVVDRGASYNQSLQNASSLVSLVLSYDSGVAGEPTSISEEAIDDIDSRVEGYTLTVPEDGSAATIKANSTLGLFRGLTTFGQLWYDLNNTTYTIEAPIAITDSPVFPYRGFMLDTARNYFPVSDILRTLDAMSWVKMTTFHWHMVDSQSFPLEVPEFPELSLNGAYGPSLVYSTNDVQTIVSYANARGIDVLPEIDTPGHTAIIAQAYPEHVACPGATPWATYANEPPAGQLRFANANTTNFTASLISSVSARFPGKYFSTGGDELNTECYAIDESTQADLNTTGKTLEQALDTFTQTVQSVLEDSGKTPVVWEEMVLDFNLTLSNNTIVMVWISSADAAAVADKGFRLVQAPSDYFYLDCGAGGWVGANPSGNSWCDPFKTWQYAYSFDPVANLTDAQAKLVIGGEHLLWTEQSHASNLDSIVWPRAAASAELFWSGPGGNISEALPRLHDVAFRMTQRGVGAIALQPLWCALRPGVCDLTA
notes: native, purified from fruiting bodies; secreted mature form, 17-residue signal peptide predicted (ORF 553 aa, mature 536 aa); N-terminus LWPLPTDFSTGTAAL; 79 kDa on SDS-PAGE (58 kDa calculated, glycosylated); GH20
On to B1, for which, in data set [1], the Km worked out at 430 ± 30 µM, the kcat was 177 ± 8 s⁻¹ and the catalytic efficiency (kcat/Km) amounted to 411000 M⁻¹ s⁻¹. Besides, in data set [2], the Michaelis-Menten constant (Km) is 340 ± 10 µM, the catalytic constant (kcat) was found to be 335 ± 10 s⁻¹ and the kcat/Km is 983000 M⁻¹ s⁻¹.
